Here are results for two molecules from publication PMC5779224, “Autoinhibition of ankyrin-B/G membrane target bindings by intrinsically disordered segments from the tail regions” (eLife, 2017).

Settings in all cases: both partners purified
Test [1] addresses T1, AnkB_R13-24 (C-terminal 12 ANK repeats of AnkB) (human, UniProt Q01484-2 430-827).
T1 construct: numbers count on: human 220 kDa AnkB NM_020977.3; also called AnkB C-terminal 12 repeats; source: E. coli BL21 (DE3), purified (Ni2+-NTA, size exclusion)
T1 sequence (looked up): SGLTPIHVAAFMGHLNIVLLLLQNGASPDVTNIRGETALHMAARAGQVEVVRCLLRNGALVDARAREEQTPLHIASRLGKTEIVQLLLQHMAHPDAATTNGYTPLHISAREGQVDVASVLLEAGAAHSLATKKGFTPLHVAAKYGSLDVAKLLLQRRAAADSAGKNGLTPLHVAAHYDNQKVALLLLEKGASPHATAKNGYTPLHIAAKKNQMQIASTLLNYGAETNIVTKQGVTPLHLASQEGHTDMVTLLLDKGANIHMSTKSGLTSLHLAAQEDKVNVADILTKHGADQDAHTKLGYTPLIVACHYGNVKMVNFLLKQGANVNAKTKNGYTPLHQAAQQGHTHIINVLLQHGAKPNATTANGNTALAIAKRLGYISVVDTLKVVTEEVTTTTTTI
In words: crystal structure; one natural chain AnkB 430-873; the linker folds back on the repeats of the same chain; crystals grown at 16 °C.

In test [2] the target is T2, AnkB_MBD (AnkB ANK repeats only, aa 28–827) (human, UniProt Q01484-2 28-827).
T2 construct: ankyrin-B (AnkB), human 220 kDa isoform, residues 28-827: the 24 ANK repeats (MBD), no linker; numbers count on: human 220 kDa AnkB NM_020977.3; Poor quality in 100 mM NaCl buffer; also called AnkB 28–827; source: E. coli BL21 (DE3), purified (Ni2+-NTA, size exclusion)
T2 sequence (looked up): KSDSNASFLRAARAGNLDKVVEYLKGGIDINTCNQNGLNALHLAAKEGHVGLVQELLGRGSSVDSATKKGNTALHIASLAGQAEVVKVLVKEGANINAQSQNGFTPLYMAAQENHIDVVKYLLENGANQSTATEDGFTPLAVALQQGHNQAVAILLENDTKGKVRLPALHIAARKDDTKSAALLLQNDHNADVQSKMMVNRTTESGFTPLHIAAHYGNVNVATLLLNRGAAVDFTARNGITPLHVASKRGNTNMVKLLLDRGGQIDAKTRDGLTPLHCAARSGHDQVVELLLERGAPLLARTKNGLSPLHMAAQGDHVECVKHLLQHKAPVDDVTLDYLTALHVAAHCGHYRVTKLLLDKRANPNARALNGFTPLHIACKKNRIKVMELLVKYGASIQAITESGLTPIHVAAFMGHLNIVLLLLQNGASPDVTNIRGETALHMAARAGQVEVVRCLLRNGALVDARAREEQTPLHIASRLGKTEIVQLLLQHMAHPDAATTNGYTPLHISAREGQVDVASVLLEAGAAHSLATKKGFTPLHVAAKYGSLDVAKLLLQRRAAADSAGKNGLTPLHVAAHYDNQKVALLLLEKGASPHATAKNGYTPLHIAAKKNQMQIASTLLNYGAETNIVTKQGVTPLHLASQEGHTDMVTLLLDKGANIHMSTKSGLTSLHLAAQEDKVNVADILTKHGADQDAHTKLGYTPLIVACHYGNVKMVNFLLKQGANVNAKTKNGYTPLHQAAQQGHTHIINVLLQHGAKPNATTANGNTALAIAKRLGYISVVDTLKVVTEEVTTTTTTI
In words: ITC; VP-ITC MicroCal, 25 °C; proteins in 50 mM Tris-HCl pH 7.8, 1 mM DTT, 1 mM EDTA with 100 mM or 500 mM NaCl as required; who was titrated is not told. For orientation: In ITC the heat of successive injections is recorded.

For the next test, the target named is T3, AnkB_MBD Asn595Ala (human, UniProt Q01484-2 28-827, Asn595Ala).
T3 construct: ankyrin-B (AnkB), human 220 kDa isoform, MBD 28-827 with N595A in a finger loop; numbers count on: human 220 kDa AnkB NM_020977.3; source: E. coli BL21 (DE3), purified (Ni2+-NTA, size exclusion)
T3 sequence (looked up): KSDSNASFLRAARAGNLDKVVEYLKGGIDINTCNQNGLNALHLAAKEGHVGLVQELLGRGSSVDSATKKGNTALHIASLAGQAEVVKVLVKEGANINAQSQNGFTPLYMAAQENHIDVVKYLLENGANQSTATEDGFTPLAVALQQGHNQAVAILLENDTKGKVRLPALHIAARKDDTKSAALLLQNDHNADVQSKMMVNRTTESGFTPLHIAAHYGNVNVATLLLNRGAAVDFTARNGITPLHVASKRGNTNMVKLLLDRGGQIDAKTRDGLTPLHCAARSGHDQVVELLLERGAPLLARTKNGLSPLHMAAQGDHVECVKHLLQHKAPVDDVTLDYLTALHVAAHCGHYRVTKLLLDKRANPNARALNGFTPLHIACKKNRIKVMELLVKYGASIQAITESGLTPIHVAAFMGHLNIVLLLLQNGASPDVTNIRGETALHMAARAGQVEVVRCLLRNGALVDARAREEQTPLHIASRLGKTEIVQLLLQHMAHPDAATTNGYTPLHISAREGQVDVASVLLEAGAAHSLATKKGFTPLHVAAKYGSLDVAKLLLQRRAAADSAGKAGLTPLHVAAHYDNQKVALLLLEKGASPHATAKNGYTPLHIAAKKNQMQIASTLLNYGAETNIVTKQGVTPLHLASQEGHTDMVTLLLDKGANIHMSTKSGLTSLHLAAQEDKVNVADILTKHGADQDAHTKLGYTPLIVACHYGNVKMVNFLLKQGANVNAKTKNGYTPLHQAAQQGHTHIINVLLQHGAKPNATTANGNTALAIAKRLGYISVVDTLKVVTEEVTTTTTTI
The test is described as above.

B1: AnkB 46-residue linker after the ANK repeats (aa 828–873, holds AI-c), as crystallised (domain or fragment, human, UniProt Q01484-2 828-873, looked up)
chain: TEKHKLNVPETMTEVLDVSDEEGDDTMTGDGGEYLRPEDLKELGDD
notes: Thr828 to Asp847 defined in the map; numbers count on: human 220 kDa AnkB NM_020977.3; Contiguous with m23 on one natural chain; also called folded back linker; source: E. coli BL21 (DE3), purified (Ni2+-NTA, size exclusion)
On to B1, for which the binding result in test [1] is on record as “binds”.

B2: AnkB_AI-c (aa 828–852) (domain or fragment, human, UniProt Q01484-2 828-852, looked up)
chain: TEKHKLNVPETMTEVLDVSDEEGDD
notes: numbers count on: human 220 kDa AnkB NM_020977.3; source: E. coli BL21 (DE3), purified (Ni2+-NTA, size exclusion)
As to B2, the binding result (in test [2]; in the test with AnkB_MBD Asn595Ala) was “binds” in each case.
